Molecular target: T1, 人CD40 (BJAB细胞) (human, UniProt P25942 21-277)
T1 construct: whole, on cells; On the surface of BJAB cells in FACS and in the functional assays; also called 细胞膜表面的CD40; 人CD40分子
Test: Western blot, hybridoma supernatant as primary antibody, HRP anti-mouse IgG secondary

T1 sequence (P25942 21-277): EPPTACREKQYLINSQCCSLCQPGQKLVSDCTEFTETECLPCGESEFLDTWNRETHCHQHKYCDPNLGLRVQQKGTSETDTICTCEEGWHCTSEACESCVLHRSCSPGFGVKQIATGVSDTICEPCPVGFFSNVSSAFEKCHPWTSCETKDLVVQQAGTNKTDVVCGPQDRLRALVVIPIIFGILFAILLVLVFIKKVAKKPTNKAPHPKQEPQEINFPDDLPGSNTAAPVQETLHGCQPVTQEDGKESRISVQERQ

binding result: binds
B1: CD40单克隆抗体 No.3 (antibody, V domains shown)
VH: EVQLQQSGPELVKPGASVKIVCKASGYTFTDYNMDWVKQSHGKSLEWIGDINPKNGGIIYNQKFKGKATLTVDKSSSTAYMELRSLTSEDTAVYYCVRRFAYWGQGTTVTVSS
VL: DIELTQSPTTMAASPGEKITITCSASSSISSNYLHWYQQKPGFSPKLLIYRTSNLAYGVPARFSGSGSGTSYSLTIGTMEAEDVATYYCQQGSSIPYTFGGGTKLEIKR
notes: Mouse hybridoma antibody, tested as culture supernatant

Source: patent publication CN109384845A (SHANGHAI INST BIOLOGICAL SCIENCES CAS, dated 2019)
